Here are results for one molecule from publication PMC9976877, “The Ku complex promotes DNA end-bridging and this function is antagonized by Tel1/ATM kinase”.

Data set [1] concerns the target T1, Ku70-Strep (wild type);Ku80-6xHis (Saccharomyces cerevisiae;Saccharomyces …, UniProt P32807;Q04437 1-602;1-629, |).
T1 sequence 1: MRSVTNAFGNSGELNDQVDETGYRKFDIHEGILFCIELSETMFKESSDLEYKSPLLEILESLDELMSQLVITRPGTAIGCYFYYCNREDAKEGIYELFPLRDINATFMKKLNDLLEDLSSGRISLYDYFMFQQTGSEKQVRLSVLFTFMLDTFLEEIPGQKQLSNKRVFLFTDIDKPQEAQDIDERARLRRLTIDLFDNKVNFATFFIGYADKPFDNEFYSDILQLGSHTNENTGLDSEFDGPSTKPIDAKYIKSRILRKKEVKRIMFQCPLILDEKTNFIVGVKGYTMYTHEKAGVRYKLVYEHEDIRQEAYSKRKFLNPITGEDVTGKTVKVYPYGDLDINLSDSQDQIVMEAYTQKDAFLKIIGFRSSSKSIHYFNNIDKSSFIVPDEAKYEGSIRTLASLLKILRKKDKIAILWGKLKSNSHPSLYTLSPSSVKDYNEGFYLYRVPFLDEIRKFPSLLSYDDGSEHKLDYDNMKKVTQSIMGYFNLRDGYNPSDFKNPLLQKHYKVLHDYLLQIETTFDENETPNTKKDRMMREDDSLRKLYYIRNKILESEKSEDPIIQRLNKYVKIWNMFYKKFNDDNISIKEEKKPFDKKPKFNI
T1 sequence 2: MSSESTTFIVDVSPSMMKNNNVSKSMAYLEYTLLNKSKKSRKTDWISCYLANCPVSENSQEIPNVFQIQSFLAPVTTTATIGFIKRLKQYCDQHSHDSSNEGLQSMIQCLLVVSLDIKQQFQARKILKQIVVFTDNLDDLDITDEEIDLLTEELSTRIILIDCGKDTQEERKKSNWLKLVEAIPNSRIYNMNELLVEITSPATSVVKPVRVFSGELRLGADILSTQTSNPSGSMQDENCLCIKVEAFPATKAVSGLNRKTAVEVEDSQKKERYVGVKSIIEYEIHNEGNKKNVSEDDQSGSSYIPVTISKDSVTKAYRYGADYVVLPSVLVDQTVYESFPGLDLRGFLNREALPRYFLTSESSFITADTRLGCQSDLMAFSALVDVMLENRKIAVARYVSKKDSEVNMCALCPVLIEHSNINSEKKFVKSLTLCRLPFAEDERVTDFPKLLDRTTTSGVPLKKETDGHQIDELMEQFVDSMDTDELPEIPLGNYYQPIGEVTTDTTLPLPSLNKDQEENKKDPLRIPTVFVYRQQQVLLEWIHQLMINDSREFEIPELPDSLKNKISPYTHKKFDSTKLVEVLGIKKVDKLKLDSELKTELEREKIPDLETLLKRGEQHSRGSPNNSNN
The data set can be described thus: EMSA; 13 nM DNA; 0-104 nM Ku; shift detectable at 4-fold ratio of Ku to DNA; 2 mM MgCl2; EMSA: 25 mM Tris/HCl pH 7.5, 100 mM NaCl, 2 mM MgCl2, 7% glycerol, 1 mM DTT, 30 min on ice; 6% native gel at 4 °C. To be noted: protein: recombinant;recombinant; tags: Strep;6xHis; copies: 1;1; label: 32P; blunt. (In general: Mobility shift assays separate free from complexed probe on a gel.)

The target in data set [2] is T2, Ku70 C85Y-Strep;Ku80-6xHis (Saccharomyces cerevisiae;Saccharomyces …, UniProt P32807;Q04437 1-602;1-629, C85Y|).
T2 sequence 1: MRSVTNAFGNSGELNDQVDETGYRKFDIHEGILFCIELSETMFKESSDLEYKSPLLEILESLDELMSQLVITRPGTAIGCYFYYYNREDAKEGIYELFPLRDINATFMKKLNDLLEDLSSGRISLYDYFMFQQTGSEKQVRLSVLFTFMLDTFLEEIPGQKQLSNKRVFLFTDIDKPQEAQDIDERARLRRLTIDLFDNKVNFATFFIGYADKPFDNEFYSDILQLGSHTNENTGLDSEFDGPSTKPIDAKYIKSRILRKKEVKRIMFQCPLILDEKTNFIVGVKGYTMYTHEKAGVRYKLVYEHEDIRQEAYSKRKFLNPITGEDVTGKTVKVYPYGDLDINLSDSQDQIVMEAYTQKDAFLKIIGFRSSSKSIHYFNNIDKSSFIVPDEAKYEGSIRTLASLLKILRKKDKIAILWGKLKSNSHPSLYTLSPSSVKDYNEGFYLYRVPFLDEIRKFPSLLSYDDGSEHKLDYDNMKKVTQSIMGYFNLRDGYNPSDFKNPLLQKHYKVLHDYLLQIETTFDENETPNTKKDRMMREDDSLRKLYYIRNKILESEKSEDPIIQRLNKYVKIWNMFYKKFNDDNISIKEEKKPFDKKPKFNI
T2 sequence 2: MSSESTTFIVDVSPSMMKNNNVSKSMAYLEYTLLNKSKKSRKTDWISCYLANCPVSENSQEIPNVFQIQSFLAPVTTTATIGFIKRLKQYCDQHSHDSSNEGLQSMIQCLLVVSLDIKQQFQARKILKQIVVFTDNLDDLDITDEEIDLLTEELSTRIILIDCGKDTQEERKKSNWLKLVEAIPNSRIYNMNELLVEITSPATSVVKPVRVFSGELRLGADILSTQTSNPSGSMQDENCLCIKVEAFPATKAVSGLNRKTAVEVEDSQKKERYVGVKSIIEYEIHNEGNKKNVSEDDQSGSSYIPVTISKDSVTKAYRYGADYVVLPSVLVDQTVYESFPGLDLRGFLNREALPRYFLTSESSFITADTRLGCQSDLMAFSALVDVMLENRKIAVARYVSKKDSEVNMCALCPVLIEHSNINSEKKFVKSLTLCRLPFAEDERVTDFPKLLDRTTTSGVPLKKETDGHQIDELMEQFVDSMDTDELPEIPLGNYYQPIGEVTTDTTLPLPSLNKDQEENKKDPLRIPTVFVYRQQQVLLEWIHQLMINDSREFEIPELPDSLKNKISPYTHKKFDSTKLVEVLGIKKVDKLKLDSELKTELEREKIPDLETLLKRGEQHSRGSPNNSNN
Put plainly: EMSA; 13 nM DNA; 0-104 nM Ku; shift detectable at 2-fold ratio of Ku to DNA (stronger than wild type); 2 mM MgCl2; EMSA: 25 mM Tris/HCl pH 7.5, 100 mM NaCl, 2 mM MgCl2, 7% glycerol, 1 mM DTT, 30 min on ice; 6% native gel at 4 °C. To be noted: protein: recombinant;recombinant; tags: Strep;6xHis; copies: 1;1; label: 32P; blunt.

B1: 21 bp blunt-ended dsDNA (dsDNA)
DNA 1: CCGCACACCCACACACCAGTG
DNA 2: CACTGGTGTGTGGGTGTGCGG
Consider B1, for which the binding result in data set [1] and in data set [2] was “binds” in each case.
